Substrate in data set [1]: N[C@@H](Cc1ccc(O)c(O)c1)C(=O)O
The data set is described as follows: purified protein. The class given is biochemical, Candidatus Nitrosopumilus koreensis. The note with it: diphenolase.

Substrate in data set [2]: N[C@@H](Cc1ccc(O)cc1)C(=O)O
In words: purified protein. It is filed as biochemical, Candidatus Nitrosopumilus koreensis. The note with it: monophenolase.

The mark [3] stands for this setting: 50 mM Tris pH 6.0, 0.01 mM CuSO4, 20 °C, substrate range 0.025–0.0625 mM.

B1: cTyr-CNK (Candidatus Nitrosopumilus koreensis AR1) (protein)
chain: MTRKNAKDFLPDERQRYCNALLTLKQTIEPGHTLSKYDEFVAIHYGVTRRLRNGIPIGDGAHFVPGFLAWHREYLNRFEKAIRTVDSTLSLPYWNWSSGDDTDTTEIFTDDFMGPPGDPNNGNKITSGYFVENNWEVHSELDGGNNGSVLVRDSTLLSSSKLSQVSGYGELAMDAVNGDNDFDSFLPGLEGPHGSIHMWIGGHMTSMTSPNDPIFFLHHANIDRLWSKWQELHPGPENYNPNNDGSYGSRLNDRMWPWDGSEDTTTTRTGTATGISLQGLLPTFSDYDIVTPR
notes: core tyrosinase domain, residues 1-293, C-terminal 294-415 removed; His6 tag (pET23b+), E. coli BL21(DE3), Ni-NTA purified
As to B1, in “purified protein [1]” (pH 6, 20 °C), the Km – broadly, the concentration of substrate that gives half-maximal velocity – amounted to 560 ± 40 µM and the kcat (usually the maximal rate divided by the concentration of active sites) stood at 2.05 ± 0.10 s⁻¹. Also, in “purified protein [2]” (pH 6, 20 °C), the Km was determined as 1600 ± 650 µM and the kcat turned out to be 2.13 ± 0.79 s⁻¹.

B2: mTyr-CNK (Candidatus Nitrosopumilus koreensis AR1) (protein)
chain: MTRKNAKDFLPDERQRYCNALLTLKQTIEPGHTLSKYDEFVAIHYGVTRRLRNGIPIGDGAHFVPGFLAWHREYLNRFEKAIRTVDSTLSLPYWNWSSGDDTDTTEIFTDDFMGPPGDPNNGNKITSGYFVENNWEVHSELDGGNNGSVLVRDSTLLSSSKLSQVSGYGELAMDAVNGDNDFDSFLPGLEGPHGSIHMWIGGHMTSMTSPNDPIFFLHHANIDRLWSKWQELHPGPENYNPNNDGSYGSRLNDRMWPWDGSEDTTTTRTGTATGISLQGLLPTFSDYDIVTPRHVLDNNLTIP
notes: mature form, residues 1-303, C-terminal extension 304-415 removed; His6 tag (pET23b+), codon-optimized gene, E. coli BL21(DE3), Ni-NTA purified
Take B2: in the data set “purified protein [1]” (setting [3]), the Michaelis constant (Km) is 490 ± 40 µM; the turnover number (kcat) turned out to be 0.87 ± 0.07 s⁻¹; the kcat/Km – broadly, the second-order rate constant that governs catalysis at low substrate concentration – amounted to 1810 ± 260 M⁻¹ s⁻¹. In the data set “purified protein [2]” (setting [3]), the Michaelis-Menten constant (Km) was found to be 2120 ± 140 µM, the kcat came out at 3.33 ± 0.18 s⁻¹ and the catalytic efficiency (kcat/Km) is 1570 ± 10 M⁻¹ s⁻¹.

Values taken from PMC5722948, “A tyrosinase, mTyr-CNK, that is functionally available as a monophenol monooxygenase” (Scientific Reports, 2017).
